Measurements from paper PMC6171931.

Target: HCV NS5B (RNA-dependent RNA polymerase), JFH1 (Hepatitis C virus (JFH1))
Experiment: proximity ligation

## ATG5-12 conjugate (from UniProt Q9H1Y0 1-275; O94817 1-140) (complex)
  PLA interaction signals per infected cell (signals per infected cell): 380
